Results on 1 substance are retold here after PMC10692737.

The target of the assay is Rabbit skeletal muscle actin (filaments with free barbed ends) (rabbit) (UniProt P68135).

Chain of C-terminal half of mouse CAP2, C-CAP2 (219–476)-6His (Q9CYT6 219-476): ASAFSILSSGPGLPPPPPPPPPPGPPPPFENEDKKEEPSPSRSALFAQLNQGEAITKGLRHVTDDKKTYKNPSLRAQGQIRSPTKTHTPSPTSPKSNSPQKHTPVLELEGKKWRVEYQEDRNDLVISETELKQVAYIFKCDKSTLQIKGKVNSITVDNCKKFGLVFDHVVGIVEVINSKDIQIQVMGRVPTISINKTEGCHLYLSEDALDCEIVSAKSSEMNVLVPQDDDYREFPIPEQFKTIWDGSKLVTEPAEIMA

“C-terminal half of mouse CAP2, C-CAP2 (219–476)-6His (from UniProt Q9CYT6 219-476) (domain or fragment)” registered a barbed end depolymerization rate in mf-TIRF, no actin monomers, 1 μM C-CAP2 (2.5- to 3-fold faster than control) (subunits s^−1) of 10.8.
